Reference: patent publication US20230374144A1 (STAIDSON BEIJING BIOPHARMACEUTICAL, published 2023)

Legend:
[1] = target: T1, IL-4R with mouse Fc-tag (human, UniProt P24394 26-232); assay: competitive ELISA: antibody dilutions with 0.5 µg/mL IL-4R-mouse Fc on plate-captured biotinylated IL-4, anti-mouse-Fc-HRP
T1 construct: not shown: mouse Fc-tag
Description: Competitive ELISA: The second assay was designed to identify the anti-IL-4Rα antibodies that were capable of inhibiting the binding of hIL-4 to hIL-4Rα, as measured by competitive ELISA. Briefly, a 96-well plate was coated with 100 μL, 2.5 μg/mL SA (Streptavidin) solution, and incubated overnight at 4° C., followed by washed with TBST. Biotinylated IL-4 with the final concentration of 2 μg/mL was added into the plate and incubated at 37° C. for 1 hour. Then the plate was washed with TBST. The anti-IL-4Rα antibody samples were first diluted to 10 μg/mL, and 1004, of the sample was added to the first row of wells. 10 μg/mL anti-IL-4Rα antibody samples were then serially diluted at a 1:2 ratio and added to each of the remaining rows of wells. 504 of 0.5 μg/mL IL-4R with mouse Fc-tag was added to each well. After incubating for 1 hour at 37° C., the wells were washed with TBST 6 times. 100 µL of anti-mouse-Fc-HRP (1:10,000) was then added to each well and incubated for 1 hour at 37° C. The wells were washed with TBST 6 times before adding 1004/well of TMB, and incubated for 5-10 minutes at 37° C. 2M H₂SO₄ was used to stop the reaction. The ELISA results (OD450) were read, and the binding curves were generated by GraphPad Prism 5 software (GraphPad Software). Reference antibody Dupilumab (Regeneron, anti-IL-4Rα antibody) and AMG317 (Amgen, anti-IL-4Rα antibody) were used as positive controls, Human IgG4, kappa Isotype Control (Cat #HG4K, Sino Biological Inc.) was used as negative control, abbreviated as Human IgG4 in FIG. 1.

[2] = target: human IL-4Rα on cells (human, UniProt P24394 26-825); assay: cell-based or functional assay

AMG317 (antibody)
IC50 [1]: 0.0891 µg/mL
IC50(nM), neutralization of hIL-13 (4 ng/ml), HEK-Blue IL-4/IL-13 STAT6-SEAP reporter cells [2]: 0.649 nM
